Broadly, the Kd is the constant that tells how readily two partners part at equilibrium. A word on the koff: it is a measure of how fast the partners let go of each other. As usually defined, the kon is a measure of how fast the partners come together.

This passage reports Kd, koff and kon results from article PMC11153131.

In this assay the target is recombinant LDLR protein, extracellular domain, immobilised on the QCM chip (human) (UniProt P01130). Kind of assay: quartz crystal microbalance (QCM).

In the case of Human Fc-tagged CCHFV Gc (Fc fusion), the Kd came to 3.3 nM, the off-rate constant (koff) worked out at 5.9e-05 s⁻¹ and the on-rate (kon) was determined as 13000 M⁻¹ s⁻¹.
The corresponding values for “unlabelled LDL from human plasma (complex)” are 3 nM, 0.00112 s⁻¹ and 255000 M⁻¹ s⁻¹.
Consider “GP38, a secreted CCHFV glycoprotein (from UniProt Q8JSZ3 248-519) (natural protein)”, for which the dissociation constant (Kd) amounted to 180 nM.
